The values that follow come from patent publication US7741276B2, “Use of interleukin-18 inhibitors to inhibit tumor metastasis” (Ares Trading S.A., priority 1999, dated 2010).

“And” between values parts separate entries of the source, which are not always exact repeats. Equal entries are not always repeated. Marks after values point to notes of the source that are not given here.

Assay [1] has as its system B16M cell adhesion to IL-18-treated HSE. Nature of the assay: B16M cell adhesion to IL-18-treated HSE. The format is cell-based, mouse. The method, then:
FIG. 4. In vitro B16M cells adhesion to IL-18-treated HSE. HSE cells were incubated with 1 ng/ml recombinant murine IL-18 for 6 hours. In some experiments, 10 μg/ml TNF-sRp55 or 100 ng/ml IL-1Ra was added 10 min before IL-18.In other experiments, 10 μg/ml anti-VCAM-1 antibody or a similar concentration of non-specific anti-mouse lgG was added to HSE cells 30 min before B16M cells. Then, B16M cell adhesion percentage was determined as described hereinbelow in the examples. The results represent the mean ±SD of three separate experiments, each in sextuplicate (n=18). Differences in the degree of adhesion with respect to basal medium-treated HSE (*) and to IL-18-treated HSE (**) were statistically significant (P<0.01), according to the Student's two-tailed, unpaired t-test.
(§1) HSE was separated from syngeneic mice, identified and cultured as previously described (26). B16M cells were labeled with 2′,7′-bis-(2-carboxyethyl)-5,6-carboxyfluorescein-acetoxymethylester solution (BCECF-AM, Molecular Probes, Eugene, Oreg.) as reported (16). Then, 2×10^5 cells/well were added to 24-well-plate cultured HSE and 8 min later, wells were washed three times with fresh medium. The number of adhering cells was determined using a quantitative method based on a previously described fluorescence measurement system (16). In some experiments, HSE cells were pre-incubated with B16M-CM for several hours before addition of B16M cells.

Assay [2] deals with B16M cells. Nature of the assay: Adhesion of pre-treated B16M cells (IL-18 or supernatant of B16M-CM-treated HSE) to HSE. The settings on record: B16M cells incubated with 1 ng/ml murine IL-18 for 6 h. The format is cell-based, mouse. As to the method: However, local production of IL-18 may influence B16M cell behavior during its transit or arrest in the hepatic microvasculature.
as §1

For assay [3], the target named is T1, IL-18 (Homo sapiens, UniProt Q14116).
T1 sequence (Q14116 37-193): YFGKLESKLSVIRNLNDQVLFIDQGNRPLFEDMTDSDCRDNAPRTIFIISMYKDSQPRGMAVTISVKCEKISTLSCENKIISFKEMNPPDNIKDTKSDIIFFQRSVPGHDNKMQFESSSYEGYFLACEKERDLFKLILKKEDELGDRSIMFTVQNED
Particulars: in vitro; cited from earlier work.

Assay [4] relates to B16M cell adhesion to HSE cells. Briefly: B16M cell adhesion to B16M-CM-treated primary HSE cultures. The format is cell-based, mouse. The settings on record: for % Melanoma Cell Adhesion: HSE stimulated with B16-CM. The method, then:
FIG. 2 Effect of irreversible ICE inhibitor and anti-mouse IL-18 antibody on B16M cell adhesion to HSE cells, and IL-1β and TNF-α production from untreated and B16M-CM-treated HSE. Cultured HSE cells were incubated in the presence of B16M-CM for 10 h. In some experiments, both untreated and treated HSE cells received 10 μM ICEi or 10 μg/ml anti-mouse IL-18 antibody before B16M-CM. The percentage of B16M cells adhered to HSE substrate was calculated as relative value with respect to the initial number of added cells. In addition, the culture supernatants were recovered before adhesion to determine IL-1β and TNF-α concentration by ELISA. Data represent the mean ±SD of 4 separate experiments, each in sextuplicate (n=24). The augmentation of B16M cell adhesion to B16M-CM-treated HSE and of IL-1β or TNF-α production with respect to untreated HSE (*P<0.01) were statistically significant according to the Student's two-tailed, unpaired t-test.
(§2) FIG. 3. Effect of ICEi on B16M cell adhesion to B16M-CM-treated HSE in vitro. HSE cells were incubated with basal medium or B16M-CM for 8 h. Some HSE cells received 10 μM ICEi for 18 h before B16M-CM. In addition, 1 ng/ml recombinant murine IL-1β was also added to some HSE cells together with B16M-CM for 8 h. In other experiments, HSE cells received 1 ng/ml murine IL-1β or 100 pg/ml TNF-α for 6 h, and 10 μg/ml rabbit anti-mouse IL-18 polyclonal antibody was added or not 1 h before the cytokine treatment. Non-specific IgG polyclonal antibody was also added to untreated and cytokine-treated HSE cells. Then, HSE cells were washed and BCEFCF-AM-labeled B16M cells were added and washed again 8 min later. The percentage of B16M cells adhered to HSE substrate was calculated as relative value with respect to the initial number of added cells. The results represent the mean ±SD of three separate experiments, each in sextuplicate (n=18). Differences in the degree of adhesion with respect to untreated HSE (*) and to IL-1β or TNF-α-treated HSE (**) were statistically significant (P<0.01), according to the Student's two-tailed, unpaired t-test.
Culture of B16M cells. B16M cells were cultured, maintained and passaged as previously described (11). B16M conditioned medium (B16M-CM) was prepared as follows: 5×10^5 cells were plated in a 25 cm^2 T-flask and cultured for 24 h. After which, cells were cultured for an additional period of 24 h in 5 ml serum-free medium (final cellular density of 6×10^4 cells/cm^2). Supernatants were collected, diluted 3:1 in fresh serum-free medium and passed through a 0.22 Ïm filter.
(§3) HSE was separated from syngeneic mice, identified and cultured as previously described (26). […] The number of adhering cells was determined using a quantitative method based on a previously described fluorescence measurement system (16). […]

The subject of assay [5] is circulating IFN-γ. Particulars: administration of IL-18BP to mice; cited from earlier work.
Assay [6] relates to B16M cell adhesion to IL-1β or TNF-α-treated HSE. Briefly: B16M cell adhesion to IL-1β- or TNF-α-treated HSE. The format is cell-based, mouse. Particulars: 1 ng/ml murine IL-1β. As to the method:
as §2, §3

Regarding “IL-1Ra: recombinant human IL-1 receptor antagonist, gift from The Upjohn Co. [reference compound]”, the “inhibition of IL-18-induced B16M cell adhesion to HSE” value in assay [1] (100 ng/ml IL-1Ra added 10 min before IL-18) is “neither TNF-sR p55 nor IL-1Ra were able to inhibit it”.

B1: murine IL-18: recombinant murine IL-18 purchased from PeproTech (protein, UniProt P70380 36-192, looked up)
Interleukin-18: NFGRLHCTTAVIRNINDQVLFVDKRQPVFEDMTDIDQSASEPQTRLIIYMYKDSEVRGLAVTLSVKDSKMSTLSCKNKIISFEEMDPPENIDDIQSDLIFFQKRVPGHNKMEFESSLYEGHFLACQKEDDAFKLILKKKDENGDKSVMFTLTNLHQS
On to B1, for which, in assay [1] (HSE incubated with 1 ng/ml recombinant murine IL-18 for 6 hours, P<0.01), the “B16M cell adhesion to HSE” value is “increased”. The “increase of B16M cell adhesion to untreated HSE” value in assay [2] was 2 fold.

B2: IL-18BP: IL-18 binding protein, purified from urine, cloned and expressed in COS7 cells; binds IL-18 and blocks its activity (protein, UniProt O95998 31-194, looked up)
Interleukin-18-binding protein: TPVSQTTTAATASVRSTKDPCPSQPPVFPAAKQCPALEVTWPEVEVPLNGTLSLSCVACSRFPNFSILYWLGNGSFIEHLPGRLWEGSTSRERGSTGTQLCKALVLEQLTPALHSTNFSCVLVDPEQVVQRHVVLAQLWAGLRATLPPTQEALPSSHSSPQQQG
Consider B2, for which, in assay [3], the “IL-18 activation of NF-κB” value is “abolished”, the “IL-18 induction of IL-8” value is “abolished” and the “IL-18 induction of interferon-γ (IFN-γ)” value is “abolished”. The “% Melanoma Cell Adhesion” value in assay [4] (IL-18BP 1 ng/ml) is given as 15.00 ± 2.5** %. Besides, the “% Melanoma Cell Adhesion” value in assay [4] (IL-18BP 10 ng/ml) is 8.70% and 8.70 ± 1.1** %. For the same molecule, the “inhibition of B16-CM-induced adhesion” value in assay [4] (IL-18BP 10 ng/ml, adhesion below basal medium level) was found to be 100%. Besides, the “circulating IFN-γ following LPS” value in assay [5] is on record as “abrogated”.

B3: murine IL-1β: recombinant murine IL-1β from R&D System Inc. (protein, UniProt P10749 118-269, looked up)
Interleukin-1 beta: VPIRQLHYRLRDEQQKSLVLSDPYELKALHLNGQNINQQVIFSMSFVQGEPSNDKIPVALGLKGKNLYLSCVMKDGTPTLQLESVDPKQYPKKKMEKRFVFNKIEVKSKVEFESAEFPNWYISTSQAEHKPVFLGNNSGQDIIDFTMESVSS
Consider B3, for which the “compensation of the blocking effect of ICEi on HSE adhesiveness” value in assay [4] (1 ng/ml murine IL-1β added with B16M-CM for 8 h to ICEi-treated HSE) is recorded as “did not compensate”. For the same molecule, in assay [6], the “B16M cell adhesion to IL-1β-treated control HSE” value is given as “significant B16M cell adhesion increase”.

B4: TNF-sR p55: human p55 TNF soluble receptor, gift from Serono Inc. (protein, UniProt P19438 30-211, looked up)
extracellular domain: LVPHLGDREKRDSVCPQGKYIHPQNNSICCTKCHKGTYLYNDCPGPGQDTDCRECESGSFTASENHLRHCLSCSKCRKEMGQVEISSCTVDRDTVCGCRKNQYRHYWSENLFQCFNCSLCLNGTVHLSCQEKQNTVCTCHAGFFLRENECVSCSNCKKSLECTKLCLPQIENVKGTEDSGTT
modifications: extracellular domain
Consider B4, for which, in assay [1] (10 μg/ml TNF-sRp55 added 10 min before IL-18), the “inhibition of IL-18-induced B16M cell adhesion to HSE” value is reported as “neither TNF-sR p55 nor IL-1Ra were able to inhibit it”.
